According to article PMC12612594, “Nuclear Magnetic Resonance‐based fragment screen of the E3 ligase Fem‐1 homolog B” (Protein Science : A Publication of the Protein Society, 2025):
Several values for one entry are separate records, joined by “and”; a condition that tells them apart may be missing. Identical values can stand only once.

Assay: thermal shift assay of FEM1B constructs
Format: physicochemical
Conditions: average of three replicates
Method: The substrate binding domain of FEM1B (residues 1–356, ~42 kDa molecular weight) was prepared for NMR‐based screening. However, this construct (FEM1B WT) was prone to aggregation and was not suitable for the NMR experiments. […] To reduce the potential for aggregation, we prepared several mutants of FEM1B constructs and evaluated their stability using a thermal shift assay (Table 1).

Molecule | Tm ± SD
FEM1B WT: substrate binding domain of FEM1B (residues 1–356), wild type (protein, UniProt Q9UK73 1-356, looked up, fragment, substrate binding domain) MEGLAGYVYKAASEGKVLTLAALLLNRSESDIRYLLGYVSQQGGQRSTPLIIAARNGHAKVVRLLLEHYRVQTQQTGTVRFDGYVIDGATALWCAAGAGHFEVVKLLVSHGANVNHTTVTNSTPLRAACFDGRLDIVKYLVENNANISIANKYDNTCLMIAAYKGHTDVVRYLLEQRADPNAKAHCGATALHFAAEAGHIDIVKELIKWRAAIVVNGHGMTPLKVAAESCKADVVELLLSHADCDRRSRIEALELLGASFANDRENYDIIKTYHYLYLAMLERFQDGDNILEKEVLPPIHAYGNRTECRNPQELESIRQDRDALHMEGLIVRERILGADNIDVSHPIIYRGAVYAD | 35.6 °C and 35.6 ± 0.5 °C
FEM1B‐7: FEM1B construct, mutations L4E, L18E, L25S, L281E, R321D (protein, UniProt Q9UK73 1-627, looked up, variant L4E L18E L25S L281E R321D) Protein fem-1 homolog B: MEGEAGYVYKAASEGKVETLAALLSNRSESDIRYLLGYVSQQGGQRSTPLIIAARNGHAKVVRLLLEHYRVQTQQTGTVRFDGYVIDGATALWCAAGAGHFEVVKLLVSHGANVNHTTVTNSTPLRAACFDGRLDIVKYLVENNANISIANKYDNTCLMIAAYKGHTDVVRYLLEQRADPNAKAHCGATALHFAAEAGHIDIVKELIKWRAAIVVNGHGMTPLKVAAESCKADVVELLLSHADCDRRSRIEALELLGASFANDRENYDIIKTYHYLYLAMEERFQDGDNILEKEVLPPIHAYGNRTECRNPQELESIRQDDDALHMEGLIVRERILGADNIDVSHPIIYRGAVYADNMEFEQCIKLWLHALHLRQKGNRNTHKDLLRFAQVFSQMIHLNETVKAPDIECVLRCSVLEIEQSMNRVKNISDADVHNAMDNYECNLYTFLYLVCISTKTQCSEEDQCKINKQIYNLIHLDPRTREGFTLLHLAVNSNTPVDDFHTNDVCSFPNALVTKLLLDCGAEVNAVDNEGNSALHIIVQYNRPISDFLTLHSIIISLVEAGAHTDMTNKQNKTPLDKSTTGVSEILLKTQMKMSLKCLAARAVRANDINYQDQIPRTLEEFVGFH | 28.7 ± 1.4 °C
FEM1B‐8: FEM1B construct, mutations L4E, A21E, L25S, I270N, L281E (protein, UniProt Q9UK73 1-627, looked up, variant L4E A21E L25S I270N L281E) Protein fem-1 homolog B: MEGEAGYVYKAASEGKVLTLEALLSNRSESDIRYLLGYVSQQGGQRSTPLIIAARNGHAKVVRLLLEHYRVQTQQTGTVRFDGYVIDGATALWCAAGAGHFEVVKLLVSHGANVNHTTVTNSTPLRAACFDGRLDIVKYLVENNANISIANKYDNTCLMIAAYKGHTDVVRYLLEQRADPNAKAHCGATALHFAAEAGHIDIVKELIKWRAAIVVNGHGMTPLKVAAESCKADVVELLLSHADCDRRSRIEALELLGASFANDRENYDINKTYHYLYLAMEERFQDGDNILEKEVLPPIHAYGNRTECRNPQELESIRQDRDALHMEGLIVRERILGADNIDVSHPIIYRGAVYADNMEFEQCIKLWLHALHLRQKGNRNTHKDLLRFAQVFSQMIHLNETVKAPDIECVLRCSVLEIEQSMNRVKNISDADVHNAMDNYECNLYTFLYLVCISTKTQCSEEDQCKINKQIYNLIHLDPRTREGFTLLHLAVNSNTPVDDFHTNDVCSFPNALVTKLLLDCGAEVNAVDNEGNSALHIIVQYNRPISDFLTLHSIIISLVEAGAHTDMTNKQNKTPLDKSTTGVSEILLKTQMKMSLKCLAARAVRANDINYQDQIPRTLEEFVGFH | 34.5 ± 0.2 °C
FEM1B‐9: FEM1B construct, mutations L4E, A21E, L25S, L281E, R321D (protein, UniProt Q9UK73 1-627, looked up, variant L4E A21E L25S L281E R321D) Protein fem-1 homolog B: MEGEAGYVYKAASEGKVLTLEALLSNRSESDIRYLLGYVSQQGGQRSTPLIIAARNGHAKVVRLLLEHYRVQTQQTGTVRFDGYVIDGATALWCAAGAGHFEVVKLLVSHGANVNHTTVTNSTPLRAACFDGRLDIVKYLVENNANISIANKYDNTCLMIAAYKGHTDVVRYLLEQRADPNAKAHCGATALHFAAEAGHIDIVKELIKWRAAIVVNGHGMTPLKVAAESCKADVVELLLSHADCDRRSRIEALELLGASFANDRENYDIIKTYHYLYLAMEERFQDGDNILEKEVLPPIHAYGNRTECRNPQELESIRQDDDALHMEGLIVRERILGADNIDVSHPIIYRGAVYADNMEFEQCIKLWLHALHLRQKGNRNTHKDLLRFAQVFSQMIHLNETVKAPDIECVLRCSVLEIEQSMNRVKNISDADVHNAMDNYECNLYTFLYLVCISTKTQCSEEDQCKINKQIYNLIHLDPRTREGFTLLHLAVNSNTPVDDFHTNDVCSFPNALVTKLLLDCGAEVNAVDNEGNSALHIIVQYNRPISDFLTLHSIIISLVEAGAHTDMTNKQNKTPLDKSTTGVSEILLKTQMKMSLKCLAARAVRANDINYQDQIPRTLEEFVGFH | 28.5 ± 1.3 °C
FEM1B‐10: FEM1B construct, mutations L4E, L18E, L24S, I270N, L281E (protein, UniProt Q9UK73 1-627, looked up, variant L4E L18E L24S I270N L281E) Protein fem-1 homolog B: MEGEAGYVYKAASEGKVETLAALSLNRSESDIRYLLGYVSQQGGQRSTPLIIAARNGHAKVVRLLLEHYRVQTQQTGTVRFDGYVIDGATALWCAAGAGHFEVVKLLVSHGANVNHTTVTNSTPLRAACFDGRLDIVKYLVENNANISIANKYDNTCLMIAAYKGHTDVVRYLLEQRADPNAKAHCGATALHFAAEAGHIDIVKELIKWRAAIVVNGHGMTPLKVAAESCKADVVELLLSHADCDRRSRIEALELLGASFANDRENYDINKTYHYLYLAMEERFQDGDNILEKEVLPPIHAYGNRTECRNPQELESIRQDRDALHMEGLIVRERILGADNIDVSHPIIYRGAVYADNMEFEQCIKLWLHALHLRQKGNRNTHKDLLRFAQVFSQMIHLNETVKAPDIECVLRCSVLEIEQSMNRVKNISDADVHNAMDNYECNLYTFLYLVCISTKTQCSEEDQCKINKQIYNLIHLDPRTREGFTLLHLAVNSNTPVDDFHTNDVCSFPNALVTKLLLDCGAEVNAVDNEGNSALHIIVQYNRPISDFLTLHSIIISLVEAGAHTDMTNKQNKTPLDKSTTGVSEILLKTQMKMSLKCLAARAVRANDINYQDQIPRTLEEFVGFH | 36.3 ± 0.1 °C
FEM1B‐3: FEM1B construct, mutations L4E, L18E, L281E (protein, UniProt Q9UK73 1-627, looked up, variant L4E L18E L281E) Protein fem-1 homolog B: MEGEAGYVYKAASEGKVETLAALLLNRSESDIRYLLGYVSQQGGQRSTPLIIAARNGHAKVVRLLLEHYRVQTQQTGTVRFDGYVIDGATALWCAAGAGHFEVVKLLVSHGANVNHTTVTNSTPLRAACFDGRLDIVKYLVENNANISIANKYDNTCLMIAAYKGHTDVVRYLLEQRADPNAKAHCGATALHFAAEAGHIDIVKELIKWRAAIVVNGHGMTPLKVAAESCKADVVELLLSHADCDRRSRIEALELLGASFANDRENYDIIKTYHYLYLAMEERFQDGDNILEKEVLPPIHAYGNRTECRNPQELESIRQDRDALHMEGLIVRERILGADNIDVSHPIIYRGAVYADNMEFEQCIKLWLHALHLRQKGNRNTHKDLLRFAQVFSQMIHLNETVKAPDIECVLRCSVLEIEQSMNRVKNISDADVHNAMDNYECNLYTFLYLVCISTKTQCSEEDQCKINKQIYNLIHLDPRTREGFTLLHLAVNSNTPVDDFHTNDVCSFPNALVTKLLLDCGAEVNAVDNEGNSALHIIVQYNRPISDFLTLHSIIISLVEAGAHTDMTNKQNKTPLDKSTTGVSEILLKTQMKMSLKCLAARAVRANDINYQDQIPRTLEEFVGFH | 35.0 ± 0.5 °C
FEM1B‐4: FEM1B construct, mutations L4E, L18E, L281E, R321D (protein, UniProt Q9UK73 1-627, looked up, variant L4E L18E L281E R321D) Protein fem-1 homolog B: MEGEAGYVYKAASEGKVETLAALLLNRSESDIRYLLGYVSQQGGQRSTPLIIAARNGHAKVVRLLLEHYRVQTQQTGTVRFDGYVIDGATALWCAAGAGHFEVVKLLVSHGANVNHTTVTNSTPLRAACFDGRLDIVKYLVENNANISIANKYDNTCLMIAAYKGHTDVVRYLLEQRADPNAKAHCGATALHFAAEAGHIDIVKELIKWRAAIVVNGHGMTPLKVAAESCKADVVELLLSHADCDRRSRIEALELLGASFANDRENYDIIKTYHYLYLAMEERFQDGDNILEKEVLPPIHAYGNRTECRNPQELESIRQDDDALHMEGLIVRERILGADNIDVSHPIIYRGAVYADNMEFEQCIKLWLHALHLRQKGNRNTHKDLLRFAQVFSQMIHLNETVKAPDIECVLRCSVLEIEQSMNRVKNISDADVHNAMDNYECNLYTFLYLVCISTKTQCSEEDQCKINKQIYNLIHLDPRTREGFTLLHLAVNSNTPVDDFHTNDVCSFPNALVTKLLLDCGAEVNAVDNEGNSALHIIVQYNRPISDFLTLHSIIISLVEAGAHTDMTNKQNKTPLDKSTTGVSEILLKTQMKMSLKCLAARAVRANDINYQDQIPRTLEEFVGFH | 35.0 ± 0.5 °C
FEM1B‐5: FEM1B construct, mutations L4E, A21E, L18E, L25S (protein, UniProt Q9UK73 1-627, looked up, variant L4E A21E L18E L25S) Protein fem-1 homolog B: MEGEAGYVYKAASEGKVETLEALLSNRSESDIRYLLGYVSQQGGQRSTPLIIAARNGHAKVVRLLLEHYRVQTQQTGTVRFDGYVIDGATALWCAAGAGHFEVVKLLVSHGANVNHTTVTNSTPLRAACFDGRLDIVKYLVENNANISIANKYDNTCLMIAAYKGHTDVVRYLLEQRADPNAKAHCGATALHFAAEAGHIDIVKELIKWRAAIVVNGHGMTPLKVAAESCKADVVELLLSHADCDRRSRIEALELLGASFANDRENYDIIKTYHYLYLAMLERFQDGDNILEKEVLPPIHAYGNRTECRNPQELESIRQDRDALHMEGLIVRERILGADNIDVSHPIIYRGAVYADNMEFEQCIKLWLHALHLRQKGNRNTHKDLLRFAQVFSQMIHLNETVKAPDIECVLRCSVLEIEQSMNRVKNISDADVHNAMDNYECNLYTFLYLVCISTKTQCSEEDQCKINKQIYNLIHLDPRTREGFTLLHLAVNSNTPVDDFHTNDVCSFPNALVTKLLLDCGAEVNAVDNEGNSALHIIVQYNRPISDFLTLHSIIISLVEAGAHTDMTNKQNKTPLDKSTTGVSEILLKTQMKMSLKCLAARAVRANDINYQDQIPRTLEEFVGFH | 38.8 ± 0.3 °C
FEM1B‐6: FEM1B construct, mutations Y84A, I270N, L281E, R321D (protein, UniProt Q9UK73 1-627, looked up, variant Y84A I270N L281E R321D) Protein fem-1 homolog B: MEGLAGYVYKAASEGKVLTLAALLLNRSESDIRYLLGYVSQQGGQRSTPLIIAARNGHAKVVRLLLEHYRVQTQQTGTVRFDGAVIDGATALWCAAGAGHFEVVKLLVSHGANVNHTTVTNSTPLRAACFDGRLDIVKYLVENNANISIANKYDNTCLMIAAYKGHTDVVRYLLEQRADPNAKAHCGATALHFAAEAGHIDIVKELIKWRAAIVVNGHGMTPLKVAAESCKADVVELLLSHADCDRRSRIEALELLGASFANDRENYDINKTYHYLYLAMEERFQDGDNILEKEVLPPIHAYGNRTECRNPQELESIRQDDDALHMEGLIVRERILGADNIDVSHPIIYRGAVYADNMEFEQCIKLWLHALHLRQKGNRNTHKDLLRFAQVFSQMIHLNETVKAPDIECVLRCSVLEIEQSMNRVKNISDADVHNAMDNYECNLYTFLYLVCISTKTQCSEEDQCKINKQIYNLIHLDPRTREGFTLLHLAVNSNTPVDDFHTNDVCSFPNALVTKLLLDCGAEVNAVDNEGNSALHIIVQYNRPISDFLTLHSIIISLVEAGAHTDMTNKQNKTPLDKSTTGVSEILLKTQMKMSLKCLAARAVRANDINYQDQIPRTLEEFVGFH | 37.3 ± 0.04 °C
